“Also recorded” adds a separate entry of the source.
Tests used:
CT-26 = assay: In vivo efficacy in CT-26 colorectal syngeneic model; set-up: species or system mice; conditions: CT-26, BALB/c, 20 mpk IV Q3D, D13
Experimental: (§1) For the efficacy studies, C57BL/6 or BALB/c mice were subcutaneously inoculated with malignant cells and when the average tumor volume reached on average 90 mm^3, animals were randomized into 2 groups based on tumor volumes (n=10 mice per treatment group). Mice were dosed intravenously every 3 days (Q3D) at 20 mg/kg. Tumors, body weights and clinical observations were measured/collected twice a week for the duration of the study. Tumor volume is shown in FIGS. 10A-D, 11A, 12A, and 13B-C. […] Liver and kidney enzyme results corresponding to FIGS. 11A and 12A are shown in FIGS. 11B-D and 12B-D, respectively.

RM-1 = assay: In vivo efficacy in RM-1 prostate cancer model
Experimental: as §1

collagen = assay: IL-2 fusion protein collagen-agarose pulldown (immunoblot quantitation); format: binding
Experimental: To test binding to collagen, a pulldown assay using agarose cross-linked to collagen (Sigma) was performed. IL-2 fusion proteins were incubated with collagen-agarose or control agarose beads for 18-22 h at 4C with gentle rotation in 1% BSA/PBS-0.05% Tween 20. After washing, proteins bound to the beads were eluted by resuspending beads in SDS sample buffer (Life Technologies). Bound proteins were then separated by SDS-PAGE on 4-12% BisTris gradient gel followed by immunoblotting with goat anti-mouse IL-2 polyclonal antibody (AF-402-NA; R&D systems). Donkey Anti-goat RP-conjugated antibody was used for detection (Jackson Immuno Research, West Grove, PA) and the blot was developed using the SuperSignal West Femto Maximum sensitivity detection reagent (ThermoFisher) following the manufacturer's recommendations.

MC38 tumor = assay: Systemic IV injection in syngeneic MC38 colorectal cancer model; format: in vivo
Experimental: The objective of this study is to evaluate efficacy of Construct B in the MC38-bearing female C57BL/6 mice. For this study, C57BL/6 6-8 weeks old female mice (Jackson Labs) were subcutaneously inoculated with MC38 cells (10^6 cells/animal), and when the average tumor volume reached about 80 mm^3, animals were randomized into 2 groups based on tumor volumes (8 mice per treatment group). Animals were dosed according to the following study design:
Mice were dosed over a 21 day period then further observed for an additional week.

heparin = assay: IL-2 fusion protein plate binding assay to Heparin-BSA conjugate
Experimental: 96-well plates were coated with 25 ug/mL of Heparin-BSA conjugate (provided by Dr. Mueller, Boerhinger Ingelheim) or control BSA for 18-22 h at room temperature on shaker (350 rpm). After washing, wells are blocked with PBS-0.05% Tween 20/1% BSA for 90 min, then fusion proteins are titrated in 1% BSA/PBS-0.05% Tween 20 pH 7.5 and/or pH 6 and added for 2 hr at room temperature with shaking. After washing, an anti-mouse IL-2 biotin-labelled detection antibody (JES6-5H4, ThermoFisher) is added and binding is detected using Ultra Strepavidin HIRP (ThermoFisher). The plate was developed by adding the chromogenic tetramethylbenzidine substrate (Ultra TMB, ThermoFisher). The reaction is stopped by addition of 0.5M H2SO4 and the absorbance is read at 450-650 nm.

[1] = system: tumor infiltrating immune cells; assay: Immune cell populations by immunohistochemistry in MC38 tumor samples; format: in vivo, mice; conditions: MC38 tumors, 10 mg/kg IV Q3D for 21 days
Experimental: The objective of this study is to evaluate immune targets in tumor samples by IHC. See below for details: • CD4+Foxp3 double immunofluorescence staining • CD8, CD25, CD3, CD4 and CD335 single IHC staining
7 tumor samples were selected from the systemic in vivo efficacy study and formalin-fixed paraffin embedded (FFPE) blocks were prepared following standard embedding process.
FFPE blocks were sectioned with a manual rotary microtome (4 μm thickness/section) and optimized IHC assay protocols for all the antibodies were used. All stained sections were scanned with NanoZoomer-S60 Image system with 40× magnification. High resolution picture for whole section was generated and further analyzed.
Scoring Method: All the images were analyzed with HALO™ Image Analysis platform. The whole slide image was analyzed and necrosis area was excluded. The total cells and IHC positive cells were counted. IHC score is presented as the ratio of the positive cell counts against the total cell numbers within whole section and shown in FIG. 8.

EMT06 = assay: In vivo efficacy in EMT06 breast syngeneic model; set-up: species or system mice; conditions: EMT06, BALB/c, 20 mpk IV Q3D, D20
Experimental: as §1

B16F10 = assay: In vivo efficacy in B16F10 melanoma model (Example 12)
Experimental: as §1

B1: Construct B: SEQ ID NO 101: m IL2-2x(SG4)-MMPcs1-2x(G4S)-IL2Ralpha-mIgG1 Fc (protein)
chain: APTSSSTSSSTAEAQQQQQQQQQQQQHLEQLLMDLQELLSRMENYRNLKLPRMLTFKFYLPKQATELKDLQCLEDELGPLRHVLDLTQSKSFQLEDAENFISNIRVTVVKLKGSDNTFECQFDDESATVVDFLRRWIAFCQSIISTSPQSGGGGSGGGGGPLGVRGGGGGSGGGGSELCLYDPPEVPNATFKALSYKNGTILNCECKRGFRRLKELVYMRCLGNSWSSNCQCTSNSHDKSRKQVTAQLEHQKEQQTTTDMQKPTQSMHQENLTGHCREPPPWKHEDSKRIYHFVEGQSVHYECIPGYKALQRGPAISICKMKCGKTGWTQPQLTCVDEREHHRFLASEESQGSRNSSPESETSCPITTTDFPQPTETTAMTETFVLTMEYKGCKPCICTVPEVSSVFIFPPKPKDVLTITLTPKVTCVVVDISKDDPEVQFSWFVDDVEVHTAQTQPREEQFNSTFRSVSELPIMHQDWLNGKEFKCRVNSAAFPAPIEKTISKTKGRPKAPQVYTIPPPKEQMAKDKVSLTCMITDFFPEDITVEWQWNGQPAENYKNTQPIMDTDGSYFVYSKLNVQKSNWEAGNTFTCSVLHEGLHNHHTEKSLSHSPGK
CT-26
  Max TGI %: 46%
RM-1; RM-1 model, 20 mg/kg IV Q3D
  signs of toxicity (body weight loss, liver and/or kidney enzymes, clinical observations): no signs of toxicity
RM-1; RM_1, C57BL/6, 20 mpk IV Q3D, D10
  Max TGI %: 58%
collagen; blot quantitation, collagen-agarose bound fraction
  Bound: 2306
collagen; bound fraction relative to Construct B (fold)
  Normalized: 1
collagen; fraction bound to collagen-agarose
  Bound (% input): 0.3%
MC38 tumor; 10 mpk IV Q3D for 21 D
  adverse effect / systemic toxicity: Essentially no systemic toxicity; also recorded: no adverse effect
  mouse body weight during treatment: substantially constant
MC38 tumor; IV Q3D, eight administrations, vs vehicle
  tumor growth (qualitative): virtually no tumor growth after initiation of treatment
MC38 tumor; MC-38, C57BL/6, 10 mpk IV Q3D, Day 21
  inhibition of tumor growth / Max TGI %: 92%
MC38 tumor; out of 8 cases, 10 mpk IV Q3D for 21 D
  complete tumor regressions ('cures'): 3
heparin; fold higher EC50 value
  heparin binding EC50 relative to Construct CC: > 100 fold
heparin; pH 6 vs pH 7.5, plate assay
  heparin binding (qualitative): much weaker
[1]
  tumor infiltrating immune cells (IHC score) vs vehicle: Significantly more immune cells of all tested types; also recorded: significant increase in tumor infiltrating immune cells
EMT06
  Max TGI %: 43%
B16F10; B16F10, C57BL/6, 20 mpk IV Q3D, D12
  Max TGI %: 49%
B16F10; B16F10 model, 20 mg/kg IV Q3D
  signs of toxicity (body weight loss, liver and/or kidney enzymes, clinical observations): no signs of toxicity
